Measurements published in article PMC3572731 (Journal of molecular biology, 2012).
Substitutions are numbered along the chain they refer to. In names and notes the source's numbering stands.

B1: Sf6 terminase small subunit gp1 R48A mutant (natural protein)
chain: MATEPKAGRPSDYMPEVADDICSLLSSGESLLKVCKRPGMPDKSTVFAWLAKHEDFRDKYAKATEARADSIFEEIFEIADNAIPDAAEVAKARLRVDTRKWALARMNPRKYGDKVTNELVGKDGGAIQIETSPMSTLFGK
B2: Sf6 terminase small subunit gp1 E73A mutant (natural protein, Shigella phage Sf6)
chain: B1 chain with A48R, E73A
B3: Sf6 terminase small subunit gp1 K59E mutant (natural protein)
chain: B1 chain with A48R, K59E
B4: Sf6 terminase small subunit gp1 D19R mutant (natural protein, Shigella phage Sf6, UniProt Q716H4 1-140, looked up)
chain: B1 chain with D19R, A48R

Assays:
crystal structure = molecular target: the molecule itself; assay: crystal structure
SEC = molecular target: the molecule itself; assay: SEC

Row | Protein | binding result (crystal structure) | stoichiometry N (SEC)
1 | B1 | binds | –
2 | B2 | – | 8
3 | B3 | binds | –
4 | B4 | binds | –
